# T1: Human LIGHT-32L, on II23 cells (human, UniProt O43557 1-240)
# T1 construct: also called II23-LIGHT 32L
# T1 chain: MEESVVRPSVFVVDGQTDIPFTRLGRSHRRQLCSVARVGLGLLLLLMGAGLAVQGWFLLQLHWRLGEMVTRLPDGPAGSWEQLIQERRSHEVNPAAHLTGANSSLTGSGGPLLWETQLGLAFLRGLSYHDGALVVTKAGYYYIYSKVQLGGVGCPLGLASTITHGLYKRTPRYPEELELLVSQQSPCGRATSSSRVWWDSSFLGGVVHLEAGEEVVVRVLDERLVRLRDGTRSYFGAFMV
# B1: LTβR-Fc (R&D Systems) (Fc fusion, UniProt P36941 28-227, looked up)
# chain: SQPQAVPPYASENQTCRDQEKEYYEPQHRICCSRCPPGTYVSAKCSRIRDTVCATCAENSYNEHWNYLTICQLCRPCDPVMGLEEIAPCTSKRKTQCRCQPGMFCAAWALECTHCELLSDCPPGTEAELKDEVGKGNNHCVPCKAGHFQNTSSPSARCQPHTRCENQGLVEAAPGTAQSDTTCKNPLEPLPPEMSGTMLM
# notes: also called LTBR-Fc; biotin-LTβR-Fc; not shown: Fc part of the bought fusion; not described
# B2: HVEM-Fc (R&D Systems) (Fc fusion, UniProt Q92956 37-202, looked up)
# chain: PALPSCKEDEYPVGSECCPKCSPGYRVKEACGELTGTVCEPCPPGTYIAHLNGLSKCLQCQMCDPAMGLRASRNCSRTENAVCGCSPGHFCIVQDGDHCAACRAYATSSPGQRVQKGGTESQDTLCQNCPPGTFSPNGTLEECQHQTKCSWLVTKAGAGTSSSHWV
# notes: unlabelled in the Fab screen; also called biotin-HVEM-Fc; not shown: Fc part of the bought fusion; not described
# B3: 2B11 chimeric IgG4 mAb (antibody, V domains shown)
# VH: EVQLVESGAELVRPGVSVKISCKGSGYTFTDYAIHWVKQSHAKSLEWIGVISTYYGDASYNQKFKGKATMTVDKSSSTAYMELARLTSEDSAIYYCARSRGEYGNYDAMDYWGQGTSVTVSS
# VL: DIVLTQSPASLAVSLGQRATISCRASESVDSYGNSFMHWYQQKPGQPPKLLIYRASNLESGIPARFSGSGSRTDFTLTINPVEADDVATYYCQQSNEDPYTFGGGTKLEIK
# notes: Chimeric human IgG4 (S-to-P, L-to-E) with human CL, as m1; Often misprinted 2B111; also called Parental 2B11; 2B111
# Assays:
# [1] = target: T2, Human LIGHT-214E, full length, expressed on cells (human, UniProt O43557 1-240); assay: flow cytometry, HEK293FF human LIGHT cells
# T2 construct: also called membrane LIGHT
# [2] = target: T3, Human LIGHT stably expressed on EL4 cells (EL4-LIGHT) (human, UniProt O43557 1-240); assay: flow cytometry, against F19 and F23
# T3 construct: whole, on cells; also called membrane LIGHT
# T3 sequence (O43557 whole entry): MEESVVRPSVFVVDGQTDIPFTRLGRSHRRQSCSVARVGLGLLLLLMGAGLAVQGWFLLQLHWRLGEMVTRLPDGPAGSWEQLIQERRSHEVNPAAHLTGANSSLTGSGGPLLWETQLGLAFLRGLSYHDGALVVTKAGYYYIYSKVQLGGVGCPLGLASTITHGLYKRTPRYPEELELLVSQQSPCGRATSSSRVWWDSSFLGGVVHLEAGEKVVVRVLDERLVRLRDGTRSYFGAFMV
# [3] = target: LIGHT without residues 81-84, stably expressed on EL4 cells (EL4-NC-LIGHT); assay: cell-based or functional assay
# [4] = target: T3, Human LIGHT stably expressed on EL4 …; assay: flow cytometry, EL4-LIGHT cells
# Procedure: The EC50 of the 7 mAbs were calculated from binding to EL4-LIGHT cells (FIG. 1). […] Non-linear regression analysis was performed to determine the functional binding affinity measurement or EC50 for each mAb. A range of functional affinities was observed.
# [5] = target: Full length LIGHT T191A on HEK293FF cells (Homo sapiens (Human), UniProt O43557 1-240); assay: flow cytometry, HEK293FF, mAb at EC50
# Sequence of Full length LIGHT T191A on HEK293FF cells (O43557 whole entry T191A): as the sequence (O43557 whole entry) above, with T191A counted along it
# Procedure: (§1) The day of transfection the cells were seeded in a 24-well plate at 0.6×10⁶ cells/well. Lipofectamine 2000 (ThermoFisher scientific), 3 ul, was mixed with 50 μl OptiMEM medium (GIBCO) and then added to 50 μl Opti-MEM medium containing 3 ug plasmid DNA and incubated for 20 min at RT to form DNA-Lipofectamine 2000 complexes which were then added to the HEK293FF cells and incubated at 37° C., 5% CO₂ for 24 hours. For each construct, in duplicate, 0.60×10⁶ cells/well were used in a 96 well round bottom plate. Cells were centrifuged for 3 minutes at 300×g at 4° C., the supernatant discarded and the cells washed with 150 μl FACS buffer (0.5% FBS in phosphate buffered saline). This process was repeated 3 times. […] The wells were washed 3 times as above and 50 μl/well of goat anti-human IgG FITC (1:1500 dilution in FACS buffer, SIGMA F9512-2ML) or goat anti-mouse APC (1/500 dilution in FACS buffer, BDBioscience 550826), as appropriate, was added to the wells and incubated for 30 min at 4° C. protected from the light, with shaking. The cells were then washed as above, resuspended in 100 μl of FACS buffer and binding of the antibodies to the constructs was measured using flow cytometry and a total of 10,000 cells were acquired for each sample. Controls of buffer and secondary antibody only as well as HEK293FF non transfected cells were also used.
# [6] = target: Full length LIGHT W198A on HEK293FF cells (Homo sapiens (Human), UniProt O43557 1-240); assay: flow cytometry, HEK293FF, mAb at EC50
# Sequence of Full length LIGHT W198A on HEK293FF cells (O43557 whole entry W198A): as the sequence (O43557 whole entry) above, with W198A counted along it
# Procedure: as §1
# [7] = target: Full length LIGHT A190S on HEK293FF cells (Homo sapiens (Human), UniProt O43557 1-240); assay: flow cytometry, HEK293FF, mAb at EC50
# Sequence of Full length LIGHT A190S on HEK293FF cells (O43557 whole entry A190S): as the sequence (O43557 whole entry) above, with A190S counted along it
# Procedure: as §1
# [8] = target: Full length LIGHT R195A on HEK293FF cells (Homo sapiens (Human), UniProt O43557 1-240); assay: flow cytometry, HEK293FF, mAb at EC50
# Sequence of Full length LIGHT R195A on HEK293FF cells (O43557 whole entry R195A): as the sequence (O43557 whole entry) above, with R195A counted along it
# Procedure: as §1
# [9] = target: Full length LIGHT S193A on HEK293FF cells (Homo sapiens (Human), UniProt O43557 1-240); assay: flow cytometry, HEK293FF, mAb at EC50
# Sequence of Full length LIGHT S193A on HEK293FF cells (O43557 whole entry S193A): as the sequence (O43557 whole entry) above, with S193A counted along it
# Procedure: as §1
# [10] = target: Full length LIGHT S192A on HEK293FF cells (Homo sapiens (Human), UniProt O43557 1-240); assay: flow cytometry, HEK293FF, mAb at EC50
# Sequence of Full length LIGHT S192A on HEK293FF cells (O43557 whole entry S192A): as the sequence (O43557 whole entry) above, with S192A counted along it
# Procedure: as §1
# [11] = target: Full length LIGHT W197A on HEK293FF cells (Homo sapiens (Human), UniProt O43557 1-240); assay: flow cytometry, HEK293FF, mAb at EC50
# Sequence of Full length LIGHT W197A on HEK293FF cells (O43557 whole entry W197A): as the sequence (O43557 whole entry) above, with W197A counted along it
# Procedure: as §1
# [12] = target: Full length LIGHT S194A on HEK293FF cells (Homo sapiens (Human), UniProt O43557 1-240); assay: flow cytometry, HEK293FF, mAb at EC50
# Sequence of Full length LIGHT S194A on HEK293FF cells (O43557 whole entry S194A): as the sequence (O43557 whole entry) above, with S194A counted along it
# Procedure: as §1
# [13] = target: Full length LIGHT G188A on HEK293FF cells (Homo sapiens (Human), UniProt O43557 1-240); assay: flow cytometry, HEK293FF, mAb at EC50
# Sequence of Full length LIGHT G188A on HEK293FF cells (O43557 whole entry G188A): as the sequence (O43557 whole entry) above, with G188A counted along it
# Procedure: as §1
# [14] = target: Full length LIGHT R189A on HEK293FF cells (Homo sapiens (Human), UniProt O43557 1-240); assay: flow cytometry, HEK293FF, mAb at EC50
# Sequence of Full length LIGHT R189A on HEK293FF cells (O43557 whole entry R189A): as the sequence (O43557 whole entry) above, with R189A counted along it
# Procedure: as §1
# [15] = target: Full length LIGHT V196A on HEK293FF cells (Homo sapiens (Human), UniProt O43557 1-240); assay: flow cytometry, HEK293FF, mAb at EC50
# Sequence of Full length LIGHT V196A on HEK293FF cells (O43557 whole entry V196A): as the sequence (O43557 whole entry) above, with V196A counted along it
# Procedure: as §1
# [16] = target: T1, Human LIGHT-32L, on II23 cells; assay: flow cytometry on II23-LIGHT 32L cells, 4 ug mAb in 100 uL, goat anti-human Fc gamma-PE; signal as % of the commercial anti-LIGHT-PE
# Procedure: The cells were suspended at 1×10⁷ cells/ml and 100 uL aliquots were placed into wells of a 96-well plate, the cells spun down and washed in FACS buffer at 1800 rpm for 2 min. The cells were blocked with 1:100 dilution of anti-CD16/CD32 (eBioscience, San Diego, USA) in FACS buffer for 20 min at room temperature and then washed 1× in FACS buffer at 1800 rpm for 2 min. The cells were then resuspended in 100 uL FACS buffer+4 ug anti-membrane LIGHT mAbs or anti-LIGHT-PE (eBioscience, lot: E01621-1632) for 30 min in the dark at room temperature, followed by washing 1× in FACS buffer at 1800 rpm for 2 min and then resuspended in 100 uL FACS buffer plus 1:100 goat anti-human Fcγ-PE secondary antibody or no secondary antibody at 4° C. in the dark for 30 min. The cells were again washed 1× in FACS buffer at 1800 rpm for 2 min and fixed in 200 uL 2% paraformaldehyde overnight at 4° C. and read on a flow cytometer.
# [17] = target: T3, Human LIGHT stably expressed on EL4 …; assay: flow cytometry competition on EL4-LIGHT cells, co-incubation 40 min 4 C; blocked ligand DcR3-Fc-AF647 0.8 ug/ml; displacement is partial
# Procedure: (§2) EL4-LIGHT cells were co-incubated with Alexa Fluor 647 conjugated DcR3-Fc (DcR3-Fc-AF647; 0.8 μg/ml) and graded concentrations (31 μg/ml to 128 μg/ml) of anti-membrane LIGHT antibodies (3B04, 03D12 and 02B111) for 40 min at 4° C. A control, of a mAb that binds both soluble and membrane LIGHT was included (F19 from EP2292663). The samples were washed three times and flow cytometry analysis was performed. Specific mean fluorescence intensity (MFI) obtained from the binding of DcR3-Fc-AF647 to LIGHT on EL4 cells were used to determine the levels of competition binding.
# [18] = target: T3, Human LIGHT stably expressed on EL4 …; assay: flow cytometry competition on EL4-LIGHT cells, co-incubation 40 min 4 C; blocked ligand DcR3-Fc-AF647 0.8 ug/ml; same IC50 as 0.031ug/ml, second unit printed
# Procedure: as §2
binder,measurement,setting,value
B1,EC50,[1],15 nM
B2,EC50,[1],45 nM
B3,"binding ratio, mAb to LIGHT trimer",[2],1 mAb per LIGHT trimer
same,"IC50, inhibition of IL-8 secretion, HT-29 + EL4-NC-LIGHT cells",[3],0.6 nM
same,EC50,[4],0.083 nM
same,% of WT binding,[5],1%
same,% of WT binding,[6],77%
same,% of WT binding,[7],52%
same,% of WT binding,[8],78%
same,% of WT binding,[9],0%
same,% of WT binding,[10],96%
same,% of WT binding,[11],0%
same,% of WT binding,[12],0%
same,% of WT binding,[13],3%
same,% of WT binding,[14],0%
same,% of WT binding,[15],73%
same,binding result,[16],binds
same,IC50,[17],0.031 µg/mL
same,IC50,[18],0.214 nM
